Laboratory results from patent US20050048512A1 (published 2005).
Where “and” joins values, the source holds several entries; their conditions need not be identical. Equal entries are not always repeated.

T1: CD20 on Raji or Daudi cells (UniProt P11836 1-297, limits assumed)
T1 construct: whole, on cells
T1 sequence (looked up): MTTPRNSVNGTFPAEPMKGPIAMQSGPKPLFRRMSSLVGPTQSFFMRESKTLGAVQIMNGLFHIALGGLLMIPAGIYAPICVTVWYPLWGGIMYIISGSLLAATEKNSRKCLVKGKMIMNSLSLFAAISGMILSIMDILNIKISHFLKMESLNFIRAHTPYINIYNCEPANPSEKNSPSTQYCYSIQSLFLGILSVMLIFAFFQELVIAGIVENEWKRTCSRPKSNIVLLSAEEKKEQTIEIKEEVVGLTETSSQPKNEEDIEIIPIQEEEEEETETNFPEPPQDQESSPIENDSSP

B1: CD28-A10 (designed binder)
chain: CGPGRFQCESGQCVPATWVCDGDDDCADGSDEKSCATTAPTCESNQFQCGSGQCLPGTWRCDGVNDCADSSDETGCGRPGPGATSAPAACGPGRFQCNNGNCVPQTLGCDGDNDCGDSSDEANCSAPASEPPGSL
notes: LDL receptor A-domain trimer; also called CD28 10; CD28 trimer clone 10

Tests used:
CD28 on human PBMC = CD28 on human PBMC (human, UniProt P10747 19-220); experiment: cell-based or functional assay
CD28 on monkey PBMC = CD28 on monkey PBMC (monkey (cynomolgus), UniProt Q0PDN3 19-220); experiment: cell-based or functional assay
CD28 [1] = target: T2, CD28 (UniProt P10747 19-152, limits assumed); experiment: Biacore, CD28 on CM5 chip, 0.5 and 5 uM protein in flow
T2 construct: Purified CD28 immobilized by NHS/EDC coupling (Biacore) or hydrophobic adsorption (ELISA); also called target protein CD28

CD28 [2] = target: T2, CD28; experiment: ELISA, 10 ng CD28 per well, serial dilutions of protein, anti-HA-HRP detection
[3] = target: T1, CD20 on Raji or Daudi cells; experiment: phage clone on Raji or Daudi cells with or without 1 mg/mL Rituxan

Binder	IC50, PBMC assay on human cells (3H thymidine incorporation) (CD28 on human PBMC)	IC50, PBMC assay on monkey cells (3H thymidine incorporation) (CD28 on monkey PBMC)	Kd (CD28 [1])	ELISA (column head; quantity not named) (CD28 [2])	binding result [3]
B1	3 nM and 40 ng/ml	7 nM	29 nM	1.7e-10	–
CRRNEFRCKSGHCVPQPLVCDGVRDCEDNSDEPSCGRPGPGATSAPAA (designed binder) [CD20 binding sequence 9]	–	–	–	–	binds
CLPERFQCAVPGYCIPLPGVCDGVNDCQEDSDEPNCRAPGLR (designed binder) [CD20 binding sequence 8]	–	–	–	–	binds
